# Source: patent US20230151111A1 (AKESO BIOPHARMA, published 2023)
# Where two headings read alike, the source gives them in different places.
# T1: human NT5E-Biotin (human, UniProt P21589 27-552, limits assumed, biotin label, site not stated)
# T1 construct: Captured on streptavidin-coated plates; also called human NTSE-Biotin
# T1 sequence (looked up): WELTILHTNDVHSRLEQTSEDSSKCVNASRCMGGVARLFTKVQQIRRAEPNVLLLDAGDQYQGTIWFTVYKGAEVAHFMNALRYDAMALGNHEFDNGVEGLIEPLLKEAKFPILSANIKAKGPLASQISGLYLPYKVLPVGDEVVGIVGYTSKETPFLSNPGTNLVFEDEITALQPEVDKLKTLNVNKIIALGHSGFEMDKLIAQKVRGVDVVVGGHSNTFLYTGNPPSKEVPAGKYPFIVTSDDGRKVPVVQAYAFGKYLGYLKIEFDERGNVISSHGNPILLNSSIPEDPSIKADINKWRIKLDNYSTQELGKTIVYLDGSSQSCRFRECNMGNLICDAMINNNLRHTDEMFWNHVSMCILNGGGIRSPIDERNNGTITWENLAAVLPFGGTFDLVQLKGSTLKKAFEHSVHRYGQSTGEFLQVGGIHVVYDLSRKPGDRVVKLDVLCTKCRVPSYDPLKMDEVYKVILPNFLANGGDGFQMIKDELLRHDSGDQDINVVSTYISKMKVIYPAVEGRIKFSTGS
# Assays:
# PD-1-mFc [1] = molecular target: T2, PD-1-mFc (human, UniProt Q15116 25-170, limits assumed); assay: BLI (Fortebio), PD1-mFc on AMC sensor, antibody 0.62-50 nM, 30 C
# T2 construct: also called human PD-1-mFc
# Description: The sample dilution buffer was PBS (0.02% Tween-20, 0.1% BSA, pH 7.4). […] The data were analyzed by 1:1 model fitting to obtain affinity constants.
# human PD-1-mFc-biotin [2] = molecular target: T3, human PD-1-mFc-biotin (human, UniProt Q15116 25-170, limits assumed, biotin label, site not stated); assay: competitive ELISA, blocking of PD-1-mFc-biotin binding to coated PD-L1-mFc
# Description: After incubation, the microplate was blocked with a PBS solution containing 1% BSA at 37° C. for 2 h. […] The antibody was serially diluted to 7 concentrations in a gradient ratio of 1:3 on a dilution plate with 10 μg/mL as the starting concentration, and a blank control was set. […] Then the mixture after reaction was added to the coated microplate, and the microplate was incubated for at 37° C. for 30 min. After incubation, the plate was washed three times with PBST and dried. SA-HRP (KPL, 14-30-00) working solution was added, and the plate was incubated at 37° C. for 30 min. After incubation, the plate was washed four times and patted dry. Then TMB (Neogen, 308177) was added in the dark for chromogenesis for 5 min, and a stop solution was added to terminate chromogenic reaction. Then the microplate was put into a microplate reader immediately, and the OD value of each well in the microplate was read at 450 nm. The data were analyzed and processed by SoftMax Pro 6.2.1.
# PD-1-mFc [3] = molecular target: T2, PD-1-mFc; assay: ELISA, PD-1-mFc coated
# Description: Then the microplate coated with antigens was washed once with PBST, and then blocked with a PBS solution containing 1% BSA as blocking solution at 37° C. for 2 h. After blocking, the microplate was washed 3 times with PBST. The microplate containing the test antibodies was incubated at 37° C. for 30 min, and then washed 3 times with PBST. […] The microplate was put into a microplate reader immediately, and the OD value of each well in the microplate was read at 450 nm. The data were analyzed and processed by SoftMax Pro 6.2.1.
# [4] = molecular target: T4, PD-1 on 293T-PD1 cell surface (human, UniProt Q15116 25-288); assay: flow cytometry, 293T-PD1 cells; antibody 11.11 nM
# T4 construct: whole, on cells
# Description: (§1) 500 μL of PBSA was added, and the mixture was centrifuged at 5600 rpm for 5 min to remove the supernatant. […] The system was mixed gently and uniformly, and then was incubated on ice for 1 h. Then 500 μL of PBSA was added, and the mixture was centrifuged at 5600 rpm for 5 min to remove the supernatant. […] 500 μL of PBSA was added, and the mixture was centrifuged at 5600 rpm for 5 min to remove the supernatant. At last, 200 μL of PBSA was added to resuspend cell precipitates, and the mixture was transferred to a flow tube for FACSCalibur detection.
# [5] = molecular target: T4, PD-1 on 293T-PD1 cell surface; assay: flow cytometry, 293T-PD1 cells; antibody 0.14 nM
# Description: as §1
# PD-1-mFc [6] = molecular target: T2, PD-1-mFc; assay: ELISA, PD-1-mFc coated; antibody 1 ug/mL diluted 1:27
# Description: (§2) A microplate was coated with PD-1-mFc at 0.5 μg/mL and incubated at 4° C. overnight. Then the microplate coated with antigens was washed once with PBST, and then blocked with a PBS solution containing 1% BSA as blocking solution at 37° C. for 2 h. After blocking, the microplate was washed 3 times with PBST. The microplate containing the test antibodies was incubated at 37° C. for 30 min, and then washed 3 times with PBST. […] After incubation, the plate was washed 4 times with PBST, TMB (Neogen, 308177) was added in the dark for chromogenesis for 5 min, and then a stop solution was added to terminate chromogenic reaction. The microplate was put into a microplate reader immediately, and the OD value of each well in the microplate was read at 450 nm. The data were analyzed and processed by SoftMax Pro 6.2.1,
# [7] = molecular target: T4, PD-1 on 293T-PD1 cell surface; assay: flow cytometry, 293T-PD1 cells; antibody 1.23 nM
# Description: as §1
# human PD-1-mFc-biotin [8] = molecular target: T3, human PD-1-mFc-biotin; assay: competitive ELISA, blocking of PD-1-mFc-biotin binding to coated PD-L1-mFc; remark: listed apart in the source
# Description: After incubation, the microplate was blocked with a PBS solution containing 1% BSA at 37° C. for 2 h. After blocking, the plate was washed three times and dried. The antibody was serially diluted to 7 concentrations in a gradient ratio of 1:3 on a dilution plate with 10 μg/mL as the starting concentration, and a blank control was set. […] Then the mixture after reaction was added to the coated microplate, and the microplate was incubated for at 37° C. for 30 min. After incubation, the plate was washed three times with PBST and dried. SA-HRP (KPL, 14-30-00) working solution was added, and the plate was incubated at 37° C. for 30 min. After incubation, the plate was washed four times and patted dry. Then TMB (Neogen, 308177) was added in the dark for chromogenesis for 5 min, and a stop solution was added to terminate chromogenic reaction. Then the microplate was put into a microplate reader immediately, and the OD value of each well in the microplate was read at 450 nm. The data were analyzed and processed by SoftMax Pro 6.2.1.
# [9] = molecular target: T4, PD-1 on 293T-PD1 cell surface; assay: flow cytometry, 293T-PD1 cells; antibody 100.00 nM
# Description: as §1
# [10] = molecular target: T4, PD-1 on 293T-PD1 cell surface; assay: flow cytometry, 293T-PD1 cells
# Description: as §1
# [11] = molecular target: T4, PD-1 on 293T-PD1 cell surface; assay: flow cytometry, 293T-PD1 cells; antibody 3.70 nM
# Description: as §1
# human NT5E-Biotin = molecular target: T1, human NT5E-Biotin; assay: ELISA, NT5E-biotin on streptavidin
# Description: A microplate was coated with streptavidin at 2 μg/mL and then incubated at 4° C. overnight. After incubation, the microplate coated with streptavidin was washed once with PBST, and blocked with a PBS solution containing 1% BSA as a microplate blocking solution at 37° C. for 2 h. After blocking, the microplate was washed 3 times with PBST. Then, 0.5 μg/mL antigen human NTSE-Biotin was added and incubated at 37° C. for 30 min. Then, the plate was washed 3 times with PBST. The antibodies serially diluted with PBST solution (the dilution gradients for the antibody are shown in Table 3) were added to wells of the microplate. The microplate containing the test antibodies was incubated at 37° C. for 30 min, and then washed 3 times with PBST. […] After incubation, the plate was washed 4 times with PBST, TMB (Neogen, 308177) was added in the dark for chromogenesis for 5 min, and then a stop solution was added to terminate chromogenic reaction. The microplate was put into a microplate reader immediately, and the OD value of each well in the microplate was read at 450 nm. The data were analyzed and processed by SoftMax Pro 6.2.1.
# PD-1-mFc [12] = molecular target: T2, PD-1-mFc; assay: ELISA, PD-1-mFc coated; remark: listed apart in the source
# Description: as §2
# [13] = molecular target: T4, PD-1 on 293T-PD1 cell surface; assay: flow cytometry, 293T-PD1 cells; antibody 33.33 nM
# Description: as §1
# [14] = molecular target: T4, PD-1 on 293T-PD1 cell surface; assay: flow cytometry, 293T-PD1 cells; antibody 0.41 nM
# Description: as §1
# [15] = molecular target: T4, PD-1 on 293T-PD1 cell surface; assay: flow cytometry, 293T-PD1 cells; antibody 0.05 nM
# Description: as §1
# T2 sequence (Q15116 other isoform, or with tags, fused parts or gaps limits assumed): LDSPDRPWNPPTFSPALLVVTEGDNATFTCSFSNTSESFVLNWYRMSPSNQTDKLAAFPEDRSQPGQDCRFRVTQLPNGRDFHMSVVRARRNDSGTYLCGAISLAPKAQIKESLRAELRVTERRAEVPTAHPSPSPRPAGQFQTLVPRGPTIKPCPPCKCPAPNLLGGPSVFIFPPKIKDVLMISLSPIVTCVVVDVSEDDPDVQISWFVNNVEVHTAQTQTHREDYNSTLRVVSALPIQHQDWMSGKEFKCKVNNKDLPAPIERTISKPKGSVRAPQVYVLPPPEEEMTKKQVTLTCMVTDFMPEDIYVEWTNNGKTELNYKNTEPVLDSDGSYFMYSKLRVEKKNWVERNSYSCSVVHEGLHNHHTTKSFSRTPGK
# T4 sequence (Q15116 25-288): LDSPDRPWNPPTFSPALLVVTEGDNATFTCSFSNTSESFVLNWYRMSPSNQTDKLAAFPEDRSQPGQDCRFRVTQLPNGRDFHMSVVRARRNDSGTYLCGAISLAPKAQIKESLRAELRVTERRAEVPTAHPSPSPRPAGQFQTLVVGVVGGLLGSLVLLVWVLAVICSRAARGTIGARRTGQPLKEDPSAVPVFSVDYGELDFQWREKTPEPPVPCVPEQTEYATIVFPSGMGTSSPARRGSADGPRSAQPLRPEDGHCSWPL
# T3 sequence (Q15116 other isoform, or with tags, fused parts or gaps limits assumed): as the sequence (Q15116 other isoform, or with tags, fused parts or gaps limits assumed) above
Binder,Kd (PD-1-mFc [1]) [nM],EC50 (human PD-1-mFc-biotin [2]) [nM],EC50 (PD-1-mFc [3]) [nM],FACS signal [4],FACS signal [5],OD450 (PD-1-mFc [6]) [OD],FACS signal [7],EC50 (human PD-1-mFc-biotin [8]) [nM],FACS signal [9],EC50 [10] [nM],FACS signal [11],EC50 (human NT5E-Biotin) [nM],EC50 (PD-1-mFc [12]) [nM],FACS signal [13],FACS signal [14],FACS signal [15]
"14C12H1L1(hG1TM) (antibody, human IgG1, kappa, Humanized anti-PD-1 IgG1 with L234A/L235A/G237A) heavy: not shown light: DIQMTQSPSSMSASVGDRVTFTCRASQDINTYLSWFQQKPGKSPKTLIYRANRLVSGVPSRFSGSGSGQDYTLTISSLQPEDMATYYCLQYDEFPLTFGAGTKLELKRTVAAPSVFIFPPSDEQLKSGTASVVCLLNNFYPREAKVQWKVDNALQSGNSQESVTEQDSKDSTYSLSSTLTLSKADYEKHKVYACEVTHQGLSSPVTKSFNRGEC",0.0445,2.23,0.031,,,,,,,,,,,,,
"P1D7V04R (bispecific antibody, human IgG1, kappa, Morrison form IgG-scFv) heavy: not shown light: DIQMTQSPSSMSASVGDRVTFTCRASQDINTYLSWFQQKPGKSPKTLIYRANRLVSGVPSRFSGSGSGQDYTLTISSLQPEDMATYYCLQYDEFPLTFGAGTKLELKRTVAAPSVFIFPPSDEQLKSGTASVVCLLNNFYPREAKVQWKVDNALQSGNSQESVTEQDSKDSTYSLSSTLTLSKADYEKHKVYACEVTHQGLSSPVTKSFNRGEC",,,,1280,52.4,1.66,289,1.34,361,1.57,467,0.439,0.089,400,113,24.8
